Experiments:
[1] = molecular target: T1, Kinesin light chain 4 protein (KLC4) (human, UniProt Q9NSK0 2-619); test: HuProt protein array, antibody at 1 µg/ml, Alexa-647 anti-human IgG Fc; F635 signal as z-score; KLC4 replicate 1
T1 construct: The array carries full-length recombinant human proteins expressed in S. cerevisiae; also called Human KLC4
Description: (§1) Large scale protein arrays are versatile and sensitive platforms for antibody specificity evaluation. They can be used for the evaluation of protein binding or affinity reagents that are widely employed in research and clinical applications. The microarray used in our target identification experiment provides the largest number of unique, full-length, individually purified human proteins on a single microscope slide. This allows thousands of interactions to be profiled in a high-throughput manner. The hill-length recombinant proteins are expressed in the yeast S. cerevisiae, purified, and printed on glass slides in duplicate along with a set of control proteins (GST, BSA, histones, IgG, etc.). Such microarray is not restricted to a particular type of surface coating, although the default is glass coated with ultra-thin nitrocellulose film for the non-covalent, yet irreversible, capture of active proteins to the surface. Fourteen Protein arrays were used for the antibody cross-reactivity assay of the samples. […] The antibody-antigen binding score was calculated for each protein represented on the array and expressed as z-scores. […]
(§2) Z score is the average Z score of the duplicate spots of a given protein (each protein is printed in duplicate on a HuProt™ array). The Z score of each spot on a given array is calculated according to the equation: […]

[2] = molecular target: T2, O-linked N-acetylglucosamine (GlcNAc) transferase (OGT) (human, UniProt O15294 2-1046); test: HuProt protein array, antibody at 1 µg/ml, Alexa-647 anti-human IgG Fc; F635 signal as z-score; OGT replicate 1
T2 construct: The array carries full-length recombinant human proteins expressed in S. cerevisiae; also called Human OGT
T2 sequence: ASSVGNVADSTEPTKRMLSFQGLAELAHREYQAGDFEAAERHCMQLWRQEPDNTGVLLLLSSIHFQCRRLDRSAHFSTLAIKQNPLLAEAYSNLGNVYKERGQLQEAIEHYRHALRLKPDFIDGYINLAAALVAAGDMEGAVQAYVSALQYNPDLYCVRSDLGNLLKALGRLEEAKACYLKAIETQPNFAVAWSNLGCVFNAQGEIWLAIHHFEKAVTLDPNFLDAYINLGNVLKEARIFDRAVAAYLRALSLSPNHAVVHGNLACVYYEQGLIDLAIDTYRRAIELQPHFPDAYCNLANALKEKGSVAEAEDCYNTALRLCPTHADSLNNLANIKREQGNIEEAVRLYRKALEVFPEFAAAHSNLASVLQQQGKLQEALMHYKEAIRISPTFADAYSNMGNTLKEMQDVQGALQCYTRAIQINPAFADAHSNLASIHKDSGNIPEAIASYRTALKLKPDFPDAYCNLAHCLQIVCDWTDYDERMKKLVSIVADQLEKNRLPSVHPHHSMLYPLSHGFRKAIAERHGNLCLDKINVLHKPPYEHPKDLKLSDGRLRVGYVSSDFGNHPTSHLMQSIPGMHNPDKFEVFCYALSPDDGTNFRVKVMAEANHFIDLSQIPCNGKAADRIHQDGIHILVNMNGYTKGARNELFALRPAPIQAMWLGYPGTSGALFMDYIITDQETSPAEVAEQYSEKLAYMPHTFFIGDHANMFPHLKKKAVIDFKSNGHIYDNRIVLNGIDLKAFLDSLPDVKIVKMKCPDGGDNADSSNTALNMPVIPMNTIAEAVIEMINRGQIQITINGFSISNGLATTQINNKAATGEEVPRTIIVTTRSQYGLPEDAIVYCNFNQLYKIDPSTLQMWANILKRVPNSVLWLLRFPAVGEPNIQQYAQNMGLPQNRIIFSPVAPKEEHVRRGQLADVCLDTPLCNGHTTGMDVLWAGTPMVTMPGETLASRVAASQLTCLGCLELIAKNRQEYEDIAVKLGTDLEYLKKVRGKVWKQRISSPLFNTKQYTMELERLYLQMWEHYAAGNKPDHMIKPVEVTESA
Description: as §1, §2

[3] = molecular target: T1, Kinesin light chain 4 protein (KLC4); test: HuProt protein array, F635 z-score
In short: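 Antibody 1 μg/ml on native HuProt arrays, 1 h RT; wash; Alexa-647 anti-human IgG Fc secondary. Yeast-expressed full-length proteins, duplicate spots. Value = mean Z-score of duplicates.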

[4] = molecular target: T3, Melanoma-associated antigen 3 (MAGE-A3) (human, UniProt P43357 1-314); test: HuProt protein array, antibody at 1 µg/ml, Alexa-647 anti-human IgG Fc; F635 signal as z-score; MAGEA3 replicate 1
T3 construct: The array carries full-length recombinant human proteins expressed in S. cerevisiae; also called Human MAGE-A3
Description: as §1, §2

[5] = molecular target: T4, Alpha-taxilin (TXLNA) also known as interleukin-14A (human, UniProt P40222 1-546); test: HuProt protein array, antibody at 1 µg/ml, Alexa-647 anti-human IgG Fc; F635 signal as z-score; TXLNA replicate 1
T4 construct: The array carries full-length recombinant human proteins expressed in S. cerevisiae; also called IL-14A; TXLNA/IL-14A
Description: as §1, §2

T1 sequence (Q9NSK0 2-619 limits assumed): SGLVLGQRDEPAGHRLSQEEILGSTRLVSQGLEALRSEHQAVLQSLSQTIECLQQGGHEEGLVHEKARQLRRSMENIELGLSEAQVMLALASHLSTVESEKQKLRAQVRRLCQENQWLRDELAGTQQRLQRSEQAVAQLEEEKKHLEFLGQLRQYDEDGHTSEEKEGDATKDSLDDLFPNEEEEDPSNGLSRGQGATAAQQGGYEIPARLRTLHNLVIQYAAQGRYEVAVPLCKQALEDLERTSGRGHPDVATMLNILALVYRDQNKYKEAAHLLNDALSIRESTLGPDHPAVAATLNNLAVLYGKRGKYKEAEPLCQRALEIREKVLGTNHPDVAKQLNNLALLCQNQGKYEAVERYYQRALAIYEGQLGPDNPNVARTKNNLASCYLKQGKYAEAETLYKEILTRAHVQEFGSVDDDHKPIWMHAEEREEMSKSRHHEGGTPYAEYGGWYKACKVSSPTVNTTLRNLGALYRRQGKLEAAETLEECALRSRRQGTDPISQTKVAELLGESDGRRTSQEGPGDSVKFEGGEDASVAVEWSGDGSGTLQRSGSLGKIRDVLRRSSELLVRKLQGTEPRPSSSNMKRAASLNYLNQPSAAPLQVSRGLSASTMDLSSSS
T3 sequence (P43357 whole entry): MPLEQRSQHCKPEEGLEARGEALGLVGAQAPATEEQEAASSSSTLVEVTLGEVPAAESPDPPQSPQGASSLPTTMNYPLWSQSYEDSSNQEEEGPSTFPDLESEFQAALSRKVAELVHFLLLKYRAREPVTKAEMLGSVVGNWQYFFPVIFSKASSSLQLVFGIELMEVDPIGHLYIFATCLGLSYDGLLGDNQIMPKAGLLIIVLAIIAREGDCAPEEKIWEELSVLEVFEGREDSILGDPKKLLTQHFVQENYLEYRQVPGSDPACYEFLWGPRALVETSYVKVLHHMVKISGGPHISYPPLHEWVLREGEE
T4 sequence (P40222 whole entry): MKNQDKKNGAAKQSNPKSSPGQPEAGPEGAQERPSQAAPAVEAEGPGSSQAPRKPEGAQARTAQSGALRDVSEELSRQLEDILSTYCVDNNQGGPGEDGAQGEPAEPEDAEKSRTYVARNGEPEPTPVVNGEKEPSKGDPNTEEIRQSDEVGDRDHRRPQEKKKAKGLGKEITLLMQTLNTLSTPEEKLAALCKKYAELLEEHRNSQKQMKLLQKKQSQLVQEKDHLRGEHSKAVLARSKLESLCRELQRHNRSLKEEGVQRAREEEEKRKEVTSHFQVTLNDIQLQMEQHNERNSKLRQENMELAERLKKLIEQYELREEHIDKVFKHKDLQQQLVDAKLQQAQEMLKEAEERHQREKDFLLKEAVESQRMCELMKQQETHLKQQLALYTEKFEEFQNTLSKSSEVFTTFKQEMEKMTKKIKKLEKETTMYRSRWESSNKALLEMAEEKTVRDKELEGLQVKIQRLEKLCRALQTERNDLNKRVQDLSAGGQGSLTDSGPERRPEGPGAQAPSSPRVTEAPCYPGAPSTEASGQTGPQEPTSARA

B1: TMEL1007 (antibody, V domains shown)
VH: HVHLVQSGAEVKKPGSSVKVSCTASGGSFSSNPISWVRQAPGHGLQWMGGFVPLFGTANYAPSFHGRLTITADESTSTTYMELNSLRSEDSAVYYCARDFNWNFDFWGQGTLVTVSS
VL: QSALTQPASVSGSPGQSITISCTGTSSDIGSYNLVSWYRQYPGKAPKLMIYEVNKRPSGVSNRFSGSKSGNTASLTISGLQAEDEADYYCCSYAGTTTFVIFGRGTKLTVLG
notes: It was detected with an anti-human IgG Fc gamma secondary antibody
B1: binds [1].

B2: TMEL1014 (antibody, V domains shown)
VH: SVQLVESGGGVVQPGRSLRLSCAASGFTFSSYTMHWVRQAPGKGLEWVALISYDGSNKYYADSVKGRFTISRDNPKNTLYLQMNSLRVEDTAVYYCARDWTLGYWGQGTLVTVSS
VL: VSSELTQDPAVSVALGQTVRITCQGDSLRNYYANWYQQKPGQAPILVIYDKNNRPSGIPDRFSGSSSGNTASLTITGAQAEDEADYYCNSRDSSGYHLVFGGGTKLTVLG
notes: as for B1
B2: binds [2].

B3: TMEL1013 (antibody, V domains shown)
VH: PVQLVQSGAEVKKPGSSVKVSCKASGGTFSSYTINWVRQAPGQGLEWMGRIIPILGVANYAQKFQGRVTITADKSTSTAYMDLSSLRSEDTAVYYCAREWERAFDYWGQGTLVTVSS
VL: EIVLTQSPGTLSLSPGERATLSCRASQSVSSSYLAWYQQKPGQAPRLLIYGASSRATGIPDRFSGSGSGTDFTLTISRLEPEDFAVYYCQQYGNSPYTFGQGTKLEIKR
B3: no binding (tested: 1 µg/ml) [3].

B4: TMEL1008 (antibody, V domains shown)
VH: QVQLVQSGAEVKKPGSSVKVSCKASGGTFNRDGIIWVRQAPGQGLEWMGRIIPILGIANYAQKFQGRVTIIADKSTSTAYMELSSLRSEDTAVYYCARESEVGRGMDVWGQGTTVTVSS
VL: ASALTQPASVSGSPGQSITISCTGTSSDVGDYNYVSWYQQHPGKAPKLMIYDVSNRPSGVSHRFSGSKSGNTASLTISGLQAEDEADYYCSSYTISSTLGVFGPGTKVTVLG
notes: as for B1
B4: binds [4].

B5: TMEL1011 (antibody, V domains shown)
VH: PVQLVQSGAEVKKPGSSVKVSCKASGGTFSSYSFNWVRQAPGQGLEWMARIIPILGLANYAQKFQGRVTLTADESTSTAYMELSSLRSEDTAIFYCAGMVLGQLGFDPWGQGTLVTVSS
VL: QFMLTQPHSVSESPGRTVTISCTRSSGSIARNYVHWYQHRPGSSPTTVIYEDDQRPSGVPDRFSGSIDSSSNSASLTISGLKPEDEADYFCQSYDSNIWVFGGGTKLTVLG
notes: as for B1
B5: binds [5].
